Tests used:
Assay in all cases: cell-based or functional assay
[1] = molecular target: M666 ITAM-modified BCMA CAR (ISD: Linker 6-CD3ζ ITAM2-Linker 1-CD3ζ ITAM2-Linker 7-CD3ζ ITAM2-Linker 2) (UniProt P01732)
[2] = molecular target: M663 ITAM-modified BCMA CAR (ISD: Linker 6-CD3ζ ITAM1-Linker 1-CD3ζ ITAM2-Linker 7-CD3ζ ITAM3-Linker 2) (UniProt P01732)
[3] = molecular target: M665 ITAM-modified BCMA CAR (ISD: Linker 6-CD3ζ ITAM1-Linker 1-CD3ζ ITAM1-Linker 7-CD3ζ ITAM1-Linker 2) (UniProt P01732)
M665 ITAM-modified BCMA CAR (ISD: Linker 6-CD3ζ ITAM1-Linker 1-CD3ζ ITAM1-Linker 7-CD3ζ ITAM1-Linker 2), sequence (P01732 whole entry): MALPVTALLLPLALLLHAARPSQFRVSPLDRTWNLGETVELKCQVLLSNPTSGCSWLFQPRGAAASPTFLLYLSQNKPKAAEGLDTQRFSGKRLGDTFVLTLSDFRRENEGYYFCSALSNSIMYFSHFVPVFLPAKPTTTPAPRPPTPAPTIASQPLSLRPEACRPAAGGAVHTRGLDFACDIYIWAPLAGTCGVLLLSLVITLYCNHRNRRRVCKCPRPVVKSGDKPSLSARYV

M663 ITAM-modified BCMA CAR (ISD: Linker 6-CD3ζ ITAM1-Linker 1-CD3ζ ITAM2-Linker 7-CD3ζ ITAM3-Linker 2), sequence (P01732 whole entry): as above
M666 ITAM-modified BCMA CAR (ISD: Linker 6-CD3ζ ITAM2-Linker 1-CD3ζ ITAM2-Linker 7-CD3ζ ITAM2-Linker 2), sequence (P01732 whole entry): as above

wildtype SIV Nef
Relative ISD-modified CAR expression (CAR positive rate, FACS with FITC-labeled human BCMA, normalized to empty vector control), day 3 after Nef transduction [1]: 57% | Relative ISD-modified CAR expression (CAR positive rate, FACS with FITC-labeled human BCMA, normalized to empty vector control), day 3 after Nef transduction [2]: 46.7% | Relative ISD-modified CAR expression (CAR positive rate, FACS with FITC-labeled human BCMA, normalized to empty vector control), day 3 after Nef transduction [3]: 82.3%

Reference: US20220289814A1
